Molecular target: T1, Rad4 Δβ-hairpin3 crosslinking construct (<SC41B>);Rad23 (crystal) (Saccharomyces cerevisiae?;Saccharomyces …, UniProt P14736;P32628 101-632;230-398, V131C;C132S;del599-605|)
T1 sequence 1: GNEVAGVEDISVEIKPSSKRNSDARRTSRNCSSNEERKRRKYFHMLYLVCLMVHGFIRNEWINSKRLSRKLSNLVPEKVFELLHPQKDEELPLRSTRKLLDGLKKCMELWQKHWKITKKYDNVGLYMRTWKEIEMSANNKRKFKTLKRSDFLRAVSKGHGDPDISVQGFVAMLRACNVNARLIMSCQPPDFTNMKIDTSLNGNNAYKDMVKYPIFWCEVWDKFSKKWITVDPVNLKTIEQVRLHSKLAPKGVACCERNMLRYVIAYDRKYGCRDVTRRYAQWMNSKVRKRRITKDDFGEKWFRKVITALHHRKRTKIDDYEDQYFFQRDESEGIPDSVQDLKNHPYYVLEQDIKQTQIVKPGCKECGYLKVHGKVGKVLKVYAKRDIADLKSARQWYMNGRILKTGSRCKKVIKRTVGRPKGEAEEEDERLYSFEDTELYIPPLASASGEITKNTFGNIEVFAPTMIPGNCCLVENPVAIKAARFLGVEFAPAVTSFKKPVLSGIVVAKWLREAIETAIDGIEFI
T1 sequence 2: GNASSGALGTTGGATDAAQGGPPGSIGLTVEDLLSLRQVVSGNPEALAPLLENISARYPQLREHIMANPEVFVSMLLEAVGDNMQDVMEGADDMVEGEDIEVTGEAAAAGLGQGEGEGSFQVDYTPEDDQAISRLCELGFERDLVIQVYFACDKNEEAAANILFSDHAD
Assay: X-ray crystallography

B1: CGC/GCG 23-bp crystal DNA (CH9c) (dsDNA)
DNA 1: TTGACTCGACATCGCGCGCTACA
DNA 2: ATGTAGCGCGCGATGTCGAGTCA
modifications: disulfide (cystamine)-tethered dG* at top strand position 8, from 2-F-dI
- binding result: binds
